Experimental data taken from patent US20050287527.

human α-thrombin
proteolytic cleavage of the peptide by thrombin (GFNPRHL): proteolytically cleaved after the arginine residues in the presence of the human thrombin
proteolytic cleavage of the peptide by thrombin (GFSARHL): proteolytically cleaved after the arginine residues in the presence of the human thrombin
proteolytic cleavage of the peptide by thrombin (GLDPRHL): proteolytically cleaved after the arginine residues in the presence of the human thrombin
proteolytic cleavage of the peptide by thrombin (GPNPRHL): proteolytically cleaved after the arginine residues in the presence of the human thrombin
proteolytic cleavage of the peptide by thrombin (GVDPRHL): proteolytically cleaved after the arginine residues in the presence of the human thrombin
